In PMC2904422:

Biological target: myelin and lymphocyte protein 2 (MAL2) (rat (endogenous in WIF-B)) (UniProt Q7TPB7)
Assay: co-IP

percent of total pIgA-R coimmunoprecipitated (% of total pIgA-R): 1
Substance: polymeric immunoglobulin A-receptor (pIgA-R), mature form (from UniProt P15083 19-769)
